Data from patent US20210155689A1 (SHANGHAI PHARMAEXPLORER, published 2021).

Tests used:
[1] = molecular target: hFc tagged monkey LAG-3 protein (cLAG-3-hFc protein) (monkey; human); test: ELISA, cLAG-3-hFc coated; 0.0007 nM
[2] = molecular target: human LAG-3-hFc protein (human) (UniProt P18627); test: competition FACS: inhibition of LAG-3-hFc binding to MHC II on Raji cells, antibody 7.407 nM
[3] = molecular target: human LAG-3 protein with hFc tag (hLAG-3-hFc protein) (human) (UniProt P18627); test: ELISA, hLAG-3-hFc coated; 0.6667 nM
[4] = molecular target: human LAG-3 protein (full length, on cells) (human) (UniProt P18627); test: FACS on HEK293-hLAG-3 cells, antibody 0.064 nM
[5] = molecular target: human LAG-3-hFc protein (human) (UniProt P18627); test: competition FACS: inhibition of LAG-3-hFc binding to MHC II on Raji cells, antibody 0.274 nM
[6] = molecular target: mouse LAG-3 protein with hFc tag (mLAG-3-hFc protein) (mouse; human) (UniProt Q61790); test: ELISA, mLAG-3-hFc coated; 6.6667 nM
[7] = molecular target: human LAG-3-hFc protein (human) (UniProt P18627); test: competition FACS: inhibition of LAG-3-hFc binding to MHC II on Raji cells, antibody 2.469 nM
[8] = molecular target: hFc tagged monkey LAG-3 protein (cLAG-3-hFc protein) (monkey; human); test: ELISA, cLAG-3-hFc coated; 0.0667 nM
[9] = molecular target: human LAG-3-hFc protein (human) (UniProt P18627); test: competition FACS: inhibition of LAG-3-hFc binding to MHC II on Raji cells, antibody 0.000 nM
[10] = molecular target: mouse LAG-3 protein with hFc tag (mLAG-3-hFc protein) (mouse; human) (UniProt Q61790); test: ELISA, mLAG-3-hFc coated; 0.6667 nM
[11] = molecular target: mouse LAG-3 protein with hFc tag (mLAG-3-hFc protein) (mouse; human) (UniProt Q61790); test: ELISA, mLAG-3-hFc coated; 0.0667 nM
[12] = molecular target: hFc tagged monkey LAG-3 protein (cLAG-3-hFc protein) (monkey; human); test: ELISA, cLAG-3-hFc coated; 0.0067 nM
[13] = molecular target: mouse LAG-3 protein with hFc tag (mLAG-3-hFc protein) (mouse; human) (UniProt Q61790); test: ELISA, mLAG-3-hFc coated; 66.6670 nM
[14] = molecular target: mouse LAG-3 protein with hFc tag (mLAG-3-hFc protein) (mouse; human) (UniProt Q61790); test: ELISA, mLAG-3-hFc coated; 0.0007 nM
[15] = molecular target: hFc tagged monkey LAG-3 protein (cLAG-3-hFc protein) (monkey; human); test: ELISA, cLAG-3-hFc coated; 0.0001 nM
[16] = molecular target: human LAG-3 protein (full length, on cells) (human) (UniProt P18627); test: cell-based or functional assay
[17] = molecular target: hFc tagged monkey LAG-3 protein (cLAG-3-hFc protein) (monkey; human); test: ELISA, cLAG-3-hFc coated; 6.6667 nM
[18] = molecular target: hFc tagged monkey LAG-3 protein (cLAG-3-hFc protein) (monkey; human); test: ELISA, cLAG-3-hFc coated; 0.6667 nM
[19] = molecular target: hFc tagged monkey LAG-3 protein (cLAG-3-hFc protein) (monkey; human); test: ELISA, cLAG-3-hFc coated; 0.0000 nM
[20] = molecular target: human LAG-3 protein with hFc tag (hLAG-3-hFc protein) (human) (UniProt P18627); test: ELISA, hLAG-3-hFc coated; 0.0000 nM
[21] = molecular target: human LAG-3 protein (full length, on cells) (human) (UniProt P18627); test: FACS on HEK293-hLAG-3 cells, antibody 1.6 nM
[22] = molecular target: human LAG-3 protein with hFc tag (hLAG-3-hFc protein) (human) (UniProt P18627); test: ELISA, hLAG-3-hFc coated; 6.6667 nM
[23] = molecular target: human LAG-3-hFc protein (human) (UniProt P18627); test: competition FACS: inhibition of LAG-3-hFc binding to MHC II on Raji cells, antibody 200.000 nM
[24] = molecular target: human LAG-3 protein with hFc tag (hLAG-3-hFc protein) (human) (UniProt P18627); test: ELISA, hLAG-3-hFc coated; 0.0067 nM
[25] = molecular target: human LAG-3 protein with hFc tag (hLAG-3-hFc protein) (human) (UniProt P18627); test: ELISA, hLAG-3-hFc coated; 0.0007 nM
[26] = molecular target: human LAG-3 protein (full length, on cells) (human) (UniProt P18627); test: FACS on HEK293-hLAG-3 cells, antibody 0 nM (background)
[27] = molecular target: human LAG-3 protein (full length, on cells) (human) (UniProt P18627); test: FACS on HEK293-hLAG-3 cells, antibody 0.32 nM
[28] = molecular target: human LAG-3 protein with hFc tag (hLAG-3-hFc protein) (human) (UniProt P18627); test: ELISA, hLAG-3-hFc coated; 0.0001 nM
[29] = molecular target: human LAG-3 protein with hFc tag (hLAG-3-hFc protein) (human) (UniProt P18627); test: ELISA, hLAG-3-hFc coated; 66.6670 nM
[30] = molecular target: human LAG-3 protein (full length, on cells) (human) (UniProt P18627); test: FACS on HEK293-hLAG-3 cells, antibody 0.013 nM
[31] = molecular target: mouse LAG-3 protein with hFc tag (mLAG-3-hFc protein) (mouse; human) (UniProt Q61790); test: ELISA, mLAG-3-hFc coated; 0.0067 nM
[32] = molecular target: human LAG-3 protein with hFc tag (hLAG-3-hFc protein) (human) (UniProt P18627); test: ELISA, hLAG-3-hFc coated; 0.0667 nM
[33] = molecular target: hFc tagged monkey LAG-3 protein (cLAG-3-hFc protein) (monkey; human); test: ELISA, cLAG-3-hFc coated; 66.6670 nM
[34] = molecular target: human LAG-3-hFc protein (human) (UniProt P18627); test: competition FACS: inhibition of LAG-3-hFc binding to MHC II on Raji cells, antibody 66.667 nM
[35] = molecular target: human LAG-3-hFc protein (human) (UniProt P18627); test: competition FACS: inhibition of LAG-3-hFc binding to MHC II on Raji cells, antibody 0.823 nM
[36] = molecular target: human LAG-3-hFc protein (human) (UniProt P18627); test: competition FACS: inhibition of LAG-3-hFc binding to MHC II on Raji cells, antibody 22.222 nM
[37] = molecular target: mouse LAG-3 protein with hFc tag (mLAG-3-hFc protein) (mouse; human) (UniProt Q61790); test: ELISA, mLAG-3-hFc coated; 0.0001 nM
[38] = molecular target: human LAG-3 protein (full length, on cells) (human) (UniProt P18627); test: FACS on HEK293-hLAG-3 cells, antibody 8 nM

hFc tagged monkey LAG-3 protein (cLAG-3-hFc protein) (monkey; human), sequence (chain, as listed by the source): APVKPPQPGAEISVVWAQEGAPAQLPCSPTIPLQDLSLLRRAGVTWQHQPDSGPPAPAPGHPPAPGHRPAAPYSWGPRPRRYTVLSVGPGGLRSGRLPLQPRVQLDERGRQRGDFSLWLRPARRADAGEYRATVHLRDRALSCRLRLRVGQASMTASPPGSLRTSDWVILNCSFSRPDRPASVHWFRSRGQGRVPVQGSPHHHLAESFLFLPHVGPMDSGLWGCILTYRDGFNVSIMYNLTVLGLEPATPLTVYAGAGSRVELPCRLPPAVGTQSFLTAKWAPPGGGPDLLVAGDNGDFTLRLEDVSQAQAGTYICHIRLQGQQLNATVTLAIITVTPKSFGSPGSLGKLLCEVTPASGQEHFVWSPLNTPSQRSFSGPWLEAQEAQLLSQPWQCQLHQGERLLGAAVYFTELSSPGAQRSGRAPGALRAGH
human LAG-3 protein with hFc tag (hLAG-3-hFc protein) (human), sequence (P18627 23-450): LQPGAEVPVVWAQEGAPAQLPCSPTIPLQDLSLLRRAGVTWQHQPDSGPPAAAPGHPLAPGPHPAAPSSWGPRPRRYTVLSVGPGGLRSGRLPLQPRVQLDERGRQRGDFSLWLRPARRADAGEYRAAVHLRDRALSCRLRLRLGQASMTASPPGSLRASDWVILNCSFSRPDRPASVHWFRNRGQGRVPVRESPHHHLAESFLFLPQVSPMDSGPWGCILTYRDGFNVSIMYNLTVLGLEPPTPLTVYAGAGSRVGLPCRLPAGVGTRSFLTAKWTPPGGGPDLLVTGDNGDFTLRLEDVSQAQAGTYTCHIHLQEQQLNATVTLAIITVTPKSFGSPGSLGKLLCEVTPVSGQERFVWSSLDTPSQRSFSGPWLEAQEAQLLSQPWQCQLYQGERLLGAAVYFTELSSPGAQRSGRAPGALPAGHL
human LAG-3-hFc protein (human), sequence (P18627 23-450): as above
human LAG-3 protein (full length, on cells) (human), sequence (P18627 23-525 limits assumed): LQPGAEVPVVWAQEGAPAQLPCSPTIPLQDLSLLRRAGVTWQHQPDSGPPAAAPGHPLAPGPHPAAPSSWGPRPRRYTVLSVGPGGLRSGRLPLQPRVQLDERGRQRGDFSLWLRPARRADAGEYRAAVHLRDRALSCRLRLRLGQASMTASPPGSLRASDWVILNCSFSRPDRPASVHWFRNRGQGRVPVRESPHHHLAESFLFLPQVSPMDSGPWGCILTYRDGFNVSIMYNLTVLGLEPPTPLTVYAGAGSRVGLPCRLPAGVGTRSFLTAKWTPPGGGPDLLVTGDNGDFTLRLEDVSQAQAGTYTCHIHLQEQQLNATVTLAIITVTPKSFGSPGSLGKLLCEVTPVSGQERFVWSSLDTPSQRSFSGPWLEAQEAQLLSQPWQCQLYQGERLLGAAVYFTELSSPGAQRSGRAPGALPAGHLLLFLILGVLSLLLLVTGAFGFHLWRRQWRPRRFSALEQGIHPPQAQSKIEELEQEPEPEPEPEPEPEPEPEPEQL
mouse LAG-3 protein with hFc tag (mLAG-3-hFc protein) (mouse; human), sequence (Q61790 24-442): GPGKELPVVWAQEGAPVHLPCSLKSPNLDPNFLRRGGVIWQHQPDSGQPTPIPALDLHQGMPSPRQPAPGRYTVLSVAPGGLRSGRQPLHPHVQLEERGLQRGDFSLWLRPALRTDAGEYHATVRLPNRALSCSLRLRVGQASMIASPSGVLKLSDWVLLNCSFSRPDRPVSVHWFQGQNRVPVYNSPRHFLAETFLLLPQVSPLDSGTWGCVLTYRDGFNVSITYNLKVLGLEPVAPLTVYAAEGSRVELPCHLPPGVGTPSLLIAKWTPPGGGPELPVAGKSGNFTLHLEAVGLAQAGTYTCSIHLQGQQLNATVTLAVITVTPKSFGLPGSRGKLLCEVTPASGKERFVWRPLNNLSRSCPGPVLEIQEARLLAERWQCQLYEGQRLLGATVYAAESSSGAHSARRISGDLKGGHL

Substance: hIgG control (human IgG) (antibody)
- OD450 [1]: 0.13 OD450
- Inhibition rate (%) [2]: 1%
- OD450 [3]: 0.14 OD450
- Mean fluorescence intensity [4]: 3 MFI
- Inhibition rate (%) [5]: 0%
- OD450 [6]: 0.18 OD450
- Inhibition rate (%) [7]: 3%
- OD450 [8]: 0.14 OD450
- Inhibition rate (%) [9]: 0%
- OD450 [10]: 0.09 OD450
- OD450 [11]: 0.08 OD450
- OD450 [12]: 0.19 OD450
- OD450 [13]: 0.56 OD450
- OD450 [14]: 0.07 OD450
- OD450 [15]: 0.14 OD450
- IL-2 production, pg/ml; antibody 0.0032 ug/ml, N = 1 [16]: 144 pg/mL
- IL-2 production, pg/ml; antibody 0.0032 ug/ml, N = 2 [16]: 123 pg/mL
- IL-2 production, pg/ml; antibody 0.016 ug/ml, N = 1 [16]: 141 pg/mL
- IL-2 production, pg/ml; antibody 0.016 ug/ml, N = 2 [16]: 143 pg/mL
- IL-2 production, pg/ml; antibody 0.08 ug/ml, N = 1 [16]: 157 pg/mL
- IL-2 production, pg/ml; antibody 0.08 ug/ml, N = 2 [16]: 145 pg/mL
- IL-2 production, pg/ml; antibody 0.4 ug/ml, N = 1 [16]: 159 pg/mL
- IL-2 production, pg/ml; antibody 0.4 ug/ml, N = 2 [16]: 179 pg/mL
- IL-2 production, pg/ml; antibody 2 ug/ml, N = 1 [16]: 164 pg/mL
- IL-2 production, pg/ml; antibody 2 ug/ml, N = 2 [16]: 162 pg/mL
- IL-2 production, pg/ml; antibody 10 ug/ml, N = 1 [16]: 142 pg/mL
- IL-2 production, pg/ml; antibody 10 ug/ml, N = 2 [16]: 168 pg/mL
- OD450 [17]: 0.29 OD450
- OD450 [18]: 0.18 OD450
- OD450 [19]: 0.13 OD450
- OD450 [20]: 0.11 OD450
- Mean fluorescence intensity [21]: 3 MFI
- OD450 [22]: 0.29 OD450
- Inhibition rate (%) [23]: 1%
- OD450 [24]: 0.13 OD450
- OD450 [25]: 0.1 OD450
- Mean fluorescence intensity [26]: 3 MFI
- Mean fluorescence intensity [27]: 3 MFI
- OD450 [28]: 0.1 OD450
- OD450 [29]: 1.17 OD450
- Mean fluorescence intensity [30]: 3 MFI
- OD450 [31]: 0.08 OD450
- OD450 [32]: 0.11 OD450
- OD450 [33]: 1.16 OD450
- Inhibition rate (%) [34]: 4%
- Inhibition rate (%) [35]: 2%
- Inhibition rate (%) [36]: 0%
- OD450 [37]: 0.08 OD450
- Mean fluorescence intensity [38]: 3 MFI
